# Results as given in publication PMC10849647.
# Target: pre-translocation ribosomal complex (without L27-tRNA labeling) (UniProt P0AG67)
# Test: co-sedimentation
row,ratio of co-sedimented EF-G to ribosomal S1 protein,Substance
1,0.22 EF-G per S1,T48E mutant of M5 EF-G (enzyme)
2,1 EF-G per S1,T48V mutant of M5 EF-G (enzyme)
3,0.15 EF-G per S1,"M5, the F410C-Y533C variant of a cysteineless E. coli EF-G (enzyme)"
